Measurements reported in patent US20260355328A1, “A complex comprising a cargo and a targeting moiety binding intelectin-1” (Stichting Radboud universitair medisch centrum, priority 2022, published 2026).
Entries after “also recorded” stand apart in the source; their conditions may differ.

Legend:
ITLN-1 = conditions: intestinal epithelial cells, literature; cited from earlier work
[1] = literature; cited from earlier work
[2] = literature; cited from earlier work; remark: listed apart in the source
[3] = Biodistribution of full-length lactoferrin, lactoferricin and hLF-6 in LPS-challenged mice (IVIS); type: in vivo; conditions: fluorescent label, i.v., 2 h
Description: Lactoferrin and lactoferricin are cloned in an expression plasmid containing the C-terminal Sortase-sequence protein-LPETG-HHHHHH. LPETGHHHHHH is SEQ ID NO: 98. Next, the protein is expressed overnight in E. coli and purified from sonicated bacterial cell lysates by Ni-NTA beads using 400 mM imidazole to elute the proteins. After overnight dialysis, full-length lactoferrin and hLF-6 are labelled by means of a Sortase exchange reaction on the C-terminus with a fluorescent dye (Alexa647 or Cy5.5) for 2 h at 4 °C using a fluorescently labelled donor peptide (formula:biotin-GSSG-LPETG-label or biotin-GSSG-LPETG-PEG40k-label) as substrate GSSGLPETG is SEQ ID NO: 99. Excess donor peptide is removed by means of streptavidin binding of the biotin tag on the N-terminus of the donor peptide. Next, the purified labelled protein/peptide is injected into LPS-challenged mice via intravenous injection in the tail vein. Mice are sacrificed after 2 h, and organs harvested for imaging by IVIS. Biodistribution is quantified for each organ, and relative distribution is shown.

B1: full-length lactoferrin: full-length human lactoferrin protein (protein, UniProt P02788 1-710, looked up)
chain: MKLVFLVLLFLGALGLCLAGRRRSVQWCAVSQPEATKCFQWQRNMRKVRGPPVSCIKRDSPIQCIQAIAENRADAVTLDGGFIYEAGLAPYKLRPVAAEVYGTERQPRTHYYAVAVVKKGGSFQLNELQGLKSCHTGLRRTAGWNVPIGTLRPFLNWTGPPEPIEAAVARFFSASCVPGADKGQFPNLCRLCAGTGENKCAFSSQEPYFSYSGAFKCLRDGAGDVAFIRESTVFEDLSDEAERDEYELLCPDNTRKPVDKFKDCHLARVPSHAVVARSVNGKEDAIWNLLRQAQEKFGKDKSPKFQLFGSPSGQKDLLFKDSAIGFSRVPPRIDSGLYLGSGYFTAIQNLRKSEEEVAARRARVVWCAVGEQELRKCNQWSGLSEGSVTCSSASTTEDCIALVLKGEADAMSLDGGYVYTAGKCGLVPVLAENYKSQQSSDPDPNCVDRPVEGYLAVAVVRRSDTSLTWNSVKGKKSCHTAVDRTAGWNIPMGLLFNQTGSCKFDEYFSQSCAPGSDPRSNLCALCIGDEQGENKCVPNSNERYYGYTGAFRCLAENAGDVAFVKDVTVLQNTDGNNNEAWAKDLKLADFALLCLDGKRKPVTEARSCHLAMAPNHAVVSRMDKVERLKQVLLHQQAKFGRNGSDCPDKFCLFQSETKNLLFNDNTECLARLHGKTTYEKYLGPQYVAGITNLKKCSTSPLLEACEFLRK
modifications: full-length
notes: full-length human lactoferrin protein
- uptake upon overexpression of ITLN-1 (ITLN-1): increases uptake of lactoferrin in endosomes
- ribonuclease activity [1]: pyrimidine-specific ribonuclease activity
- biodistribution of radioactive-labelled full-length protein [2]: comprise multiple organs and not primarily the kidney; also recorded: distribution to many organs
- bio-distribution [3]: accumulation predominantly in liver and spleen and less in kidney, brain and intestine
